B1: PR301445 (antibody, V domains shown)
VH: QVQLVQSGAEVKKPGASVKISCKTSGYTFTEYTMYWVRQAPGQRLEWMGGINPNNGDTSYNQKFKGRATLTVDKSATTAYMELSSLRSEDTAVYYCARDGYPYYFAMDYWGQGTTVTVSS
VL: DIQMTQSPSSLSASVGDRVTITCKASQNVDTNVAWYQQKPGKAPKGLIYSASHRYSGVPSRFSGSGSGTDFTLTISSVQPEDLATYFCQQYNTYPWTFGQGTKVEIK
B2: PR301561 (antibody, V domains shown)
VH: QVQLVQSGAEVKKPGASVKVSCKTSGYTFTEYTMYWVRQAPGQRLEWMGGINPNNGDTSYNQKFKGRVTITVDKSATTAYMELSSLRSEDTAVYYCARDGYPYYFAMDYWGQGTTVTVSS
VL: DIQMTQSPSSLSASVGDRVTITCKASQNVDTNVAWYQQKPGKAPKGLIYSASHRYSGVPSRFSGSGSGTDFTLTISSVQPEDLATYFCQQYNTYPWTFGQGTKVEIK
B3: PR301567 (antibody, V domains shown)
VH: QVQLVQSGAEVKKPGASVKISCKTSGYTFTEYTMYWVRQAPGQRLEWMGGINPNQGDTSYNQKFKGRATLTVDKSATTAYMELSSLRSEDTAVYYCAREGYPYYFAMDYWGQGTTVTVSS
VL: DIQMTQSPSSLSASVGDRVTITCKASQNVDTNVAWYQQKPGKAPKGLIYSASHRYSGVPSRFSGSGSGTDFTLTISSLQPEDLATYFCQQYNTYPWTFGQGTKVEIK
B4: PR301566 (antibody, V domains shown)
VH: QVQLVQSGAEVKKPGASVKISCKTSGYTFTEYTMYWVRQAPGQRLEWMGGINPNQGDTSYNQKFKGRATLTVDKSATTAYMELSSLRSEDTAVYYCARDGYPYYFAMDYWGQGTTVTVSS
VL: DIQMTQSPSSLSASVGDRVTITCKASQNVDTNVAWYQQKPGKAPKGLIYSASHRYSGVPSRFSGSGSGTDFTLTISSVQPEDLATYFCQQYNTYPWTFGQGTKVEIK
B5: PR301444 (antibody, V domains shown)
VH: QVQLVQSGAEVKKPGASVKVSCKTSGYTFTEYTMYWVRQAPGQRLEWMGGINPNNGDTSYNQKFKGRVTITVDKSATTAYMELSSLRSEDTAVYYCARDGYPYYFAMDYWGQGTTVTVSS
VL: DIQMTQSPSSLSASVGDRVTITCKASQNVDTNVAWYQQKPGKAPKGLIYSASHRYSGVPSRFSGSGSGTDFTLTISSLQPEDLATYFCQQYNTYPWTFGQGTKVEIK
B6: PR301568 (antibody, V domains shown)
VH: QVQLVQSGAEVKKPGASVKISCKTSGYTFTEYTMYWVRQAPGQRLEWMGGINPNQGDTSYNQKFKGRATLTVDKSATTAYMELSSLRSEDTAVYYCAREGYPYYFAMDYWGQGTTVTVSS
VL: DIQMTQSPSSLSASVGDRVTITCKASQNVDTNVAWYQQKPGKAPKGLIYSASHRYSGVPSRFSGSGSGTDFTLTISSVQPEDLATYFCQQYNTYPWTFGQGTKVEIK
B7: PR301447 (antibody, V domains shown)
VH: QVQLVQSGAEVKKPGASVKISCKTSGYTFTEYTMYWVRQAPGQRLEWMGGINPNQGDTSYNQKFKGRATLTVDKSATTAYMELSSLRSEDTAVYYCAREGYPYYFAMDYWGQGTTVTVSS
VL: DIQMTQSPSSLSASVGDRVTITCKASQNVDTNVAWYQQKPGKAPKGLIYSASSRYSGVPSRFSGSGSGTDFTLTISSVQPEDLATYFCQQYNTYPWTFGQGTKVEIK
B8: PR301565 (antibody, V domains shown)
VH: QVQLVQSGAEVKKPGASVKISCKTSGYTFTEYTMYWVRQAPGQRLEWMGGINPNQGDTSYNQKFKGRATLTVDKSATTAYMELSSLRSEDTAVYYCARDGYPYYFAMDYWGQGTTVTVSS
VL: DIQMTQSPSSLSASVGDRVTITCKASQNVDTNVAWYQQKPGKAPKGLIYSASHRYSGVPSRFSGSGSGTDFTLTISSLQPEDLATYFCQQYNTYPWTFGQGTKVEIK
B9: PR301562 (antibody, V domains shown)
VH: QVQLVQSGAEVKKPGASVKVSCKTSGYTFTEYTMYWVRQAPGQRLEWMGGINPNNGDTSYNQKFKGRVTITVDKSATTAYMELSSLRSEDTAVYYCARDGYPYYFAMDYWGQGTTVTVSS
VL: DIQMTQSPSSLSASVGDRVTITCKASQNVDTNVAWYQQKPGKAPKGLIYSASSRYSGVPSRFSGSGSGTDFTLTISSVQPEDLATYFCQQYNTYPWTFGQGTKVEIK
B10: PR301563 (antibody, V domains shown)
VH: QVQLVQSGAEVKKPGASVKISCKTSGYTFTEYTMYWVRQAPGQRLEWMGGINPNNGDTSYNQKFKGRATLTVDKSATTAYMELSSLRSEDTAVYYCARDGYPYYFAMDYWGQGTTVTVSS
VL: DIQMTQSPSSLSASVGDRVTITCKASQNVDTNVAWYQQKPGKAPKGLIYSASHRYSGVPSRFSGSGSGTDFTLTISSLQPEDLATYFCQQYNTYPWTFGQGTKVEIK
B11: PR301564 (antibody, V domains shown)
VH: QVQLVQSGAEVKKPGASVKISCKTSGYTFTEYTMYWVRQAPGQRLEWMGGINPNNGDTSYNQKFKGRATLTVDKSATTAYMELSSLRSEDTAVYYCARDGYPYYFAMDYWGQGTTVTVSS
VL: DIQMTQSPSSLSASVGDRVTITCKASQNVDTNVAWYQQKPGKAPKGLIYSASSRYSGVPSRFSGSGSGTDFTLTISSVQPEDLATYFCQQYNTYPWTFGQGTKVEIK
B12: PR301558 (antibody, V domains shown)
VH: QVQLVQSGAEVKKPGASVKLSCKASGYSFTSYWVNWVRQAPGQGLEWIGMIHPSDSETRLNQKFKDRVTITVDKSTSTAYMELSSLRSEDTAVYYCARADGYEWYFDVWGRGTLVTVSS
VL: DIVLTQSPASLAVSPGQRATITCRASESVDSYGNSFMHWYQQKPGQPPKLLIYRASNLESGIPARFSGSGSRTDFTLTINPVEANDVANYYCQQSNEDPWTFGQGTKVEIK
B13: PR301442 (antibody, V domains shown)
VH: QVQLVQSGAEVKKPGASVKLSCKASGYSFTSYWVNWVRQAPGQGLEWIGMIHPSDSETRLNQKFKDRVTITVDKSTSTAYMELSSLRSEDTAVYYCARADGYEWYFDVWGRGTLVTVSS
VL: DIVLTQSPASLAVSPGQRATITCRASESVDSYGNSFMHWYQQKPGQPPKLLIYRASNLESGIPARFSGSGSGTDFTLTINPVEANDVANYYCQQSNEDPWTFGQGTKVEIK
B14: PR301556 (antibody, V domains shown)
VH: QVQLVQSGAEVKKPGASVKVSCKASGYSFTSYWVNWVRQAPGQGLEWMGMIHPSDSETRLNQKFKDRVTMTVDKSTSTAYMELSSLRSEDTAVYYCARADGYEWYFDVWGRGTLVTVSS
VL: DIVLTQSPASLAVSPGQRATITCRASESVDSYGNSFMHWYQQKPGQPPKLLIYRASNLESGIPARFSGSGSRTDFTLTINPVEANDVANYYCQQSNEDPWTFGQGTKVEIK
B15: PR301441 (antibody, V domains shown)
VH: QVQLVQSGAEVKKPGASVKVSCKASGYSFTSYWVNWVRQAPGQGLEWMGMIHPSDSETRLNQKFKDRVTMTVDKSTSTAYMELSSLRSEDTAVYYCARADGYEWYFDVWGRGTLVTVSS
VL: DIVLTQSPASLAVSPGQRATITCRASESVDSYGNSFMHWYQQKPGQPPKLLIYRASNLESGVPARFSGSGSRTDFTLTINPVEANDVANYYCQQSNEDPWTFGQGTKVEIK
B16: PR301557 (antibody, V domains shown)
VH: QVQLVQSGAEVKKPGASVKLSCKASGYSFTSYWVNWVRQAPGQGLEWIGMIHPSDSETRLNQKFKDRVTITVDKSTSTAYMELSSLRSEDTAVYYCARADGYEWYFDVWGRGTLVTVSS
VL: DIVLTQSPASLAVSPGQRATITCRASESVDSYGNSFMHWYQQKPGQPPKLLIYRASNLESGVPARFSGSGSRTDFTLTINPVEANDVANYYCQQSNEDPWTFGQGTKVEIK
B17: PR301446 (antibody, V domains shown)
VH: QVQLVQSGAEVKKPGASVKISCKTSGYTFTEYTMYWVRQAPGQRLEWMGGINPNQGDTSYNQKFKGRATLTVDKSATTAYMELSSLRSEDTAVYYCARDGYPYYFAMDYWGQGTTVTVSS
VL: DIQMTQSPSSLSASVGDRVTITCKASQNVDTNVAWYQQKPGKAPKGLIYSASSRYSGVPSRFSGSGSGTDFTLTISSVQPEDLATYFCQQYNTYPWTFGQGTKVEIK

What follows are binders tested against T1, SARS-CoV-2(2019-nCoV)Spike Protein(S1 Subunit,His Tag) (SARS-CoV-2 (2019-nCoV), UniProt P0DTC2 16-685) (assay: not given).

Row | Binder | EC50 [nM]
1 | B1 | 0.0147
2 | B2 | 0.022
3 | B3 | 7.54
4 | B4 | 0.0149
5 | B5 | 0.0204
6 | B6 | 9.41
7 | B7 | 2.22
8 | B8 | 0.0143
9 | B9 | 0.015
10 | B10 | 0.0217
11 | B11 | 0.0154
12 | B12 | 0.0405
13 | B13 | 0.0294
14 | B14 | 0.0272
15 | B15 | 0.0154
16 | B16 | 0.0438

These binders were tested against T1, SARS-CoV-2(2019-nCoV)Spike Protein(S1 …) (assay: ELISA, S1-His coated, antibody titrated).

Row | Binder | EC50 [nM]
17 | B17 | 0.00943
